Measurements reported in US20220088148A1 (HANMI PHARM, published 2022).
Bridges are numbered along the chain shown (N, C = ends). Where no end group is shown, it is not given here. [ ]: non-standard residue; d: D form. The star is where a group is joined. Acetyl(2-(4-imidazolyl)) = O=C(Cc1c[nH]cn1)*; Aib = CC(C)(N)C(=O)O

T1: human GIP receptor (human, UniProt P48546 22-466)
T1 sequence (looked up): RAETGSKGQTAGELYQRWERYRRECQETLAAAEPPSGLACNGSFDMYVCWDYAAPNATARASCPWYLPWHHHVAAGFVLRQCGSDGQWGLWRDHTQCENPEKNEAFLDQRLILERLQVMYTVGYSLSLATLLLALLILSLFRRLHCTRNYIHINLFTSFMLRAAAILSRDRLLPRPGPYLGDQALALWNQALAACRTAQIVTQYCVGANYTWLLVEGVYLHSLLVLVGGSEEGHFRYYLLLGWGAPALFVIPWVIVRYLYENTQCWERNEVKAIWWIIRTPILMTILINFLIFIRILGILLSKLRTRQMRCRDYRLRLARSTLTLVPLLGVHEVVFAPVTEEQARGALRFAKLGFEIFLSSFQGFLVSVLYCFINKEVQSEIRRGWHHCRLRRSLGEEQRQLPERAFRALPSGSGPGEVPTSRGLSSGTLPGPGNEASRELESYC


What follows are binders tested against human GCG receptor (human, UniProt P47871 26-477) (assay: cell-based or functional assay).
human GCG receptor, sequence (P47871 26-477): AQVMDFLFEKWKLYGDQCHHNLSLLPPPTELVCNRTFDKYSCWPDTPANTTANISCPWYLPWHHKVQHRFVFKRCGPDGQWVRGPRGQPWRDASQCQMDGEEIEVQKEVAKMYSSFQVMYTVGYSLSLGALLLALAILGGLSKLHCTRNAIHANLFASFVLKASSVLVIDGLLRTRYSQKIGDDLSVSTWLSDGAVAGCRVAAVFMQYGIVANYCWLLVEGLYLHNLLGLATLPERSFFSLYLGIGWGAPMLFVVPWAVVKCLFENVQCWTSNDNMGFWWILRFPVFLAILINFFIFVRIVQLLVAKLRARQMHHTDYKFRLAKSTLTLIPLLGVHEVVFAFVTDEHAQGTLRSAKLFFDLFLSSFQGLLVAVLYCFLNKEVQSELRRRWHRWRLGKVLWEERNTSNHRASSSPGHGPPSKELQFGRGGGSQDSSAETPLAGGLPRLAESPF

Binder | In vitro activity (%) vs. Glucagon, cAMP EC50
H[Aib]QGTFTSDYSKYLDEKRQKEFVQWLLDTKC (bridge 16-20) [triple agonist of SEQ ID NO: 78] | 14%
H[Aib]EGTFTSDYSIAMDEIHQKDFVNWLLAQKC (bridge 16-20) [triple agonist of SEQ ID NO: 79] | 4.9%
H[Aib]EGTFTSDYSIAMDEIHQKDFVDWLLAEKC (bridge 16-20) [triple agonist of SEQ ID NO: 80] | 0%
{Acetyl(2-(4-imidazolyl))}-[Aib]QGTFTSDYSKYLDEKRQKEFVQWLLNTC (bridge 15-19) [triple agonist of SEQ ID NO: 81] | 0.3%
{Acetyl(2-(4-imidazolyl))}-[Aib]QGTFTSDYSKYLDEKRQKEFVQWLLDTC (bridge 15-19) [triple agonist of SEQ ID NO: 82] | 1.1%
[Acetyl(2-(4-imidazolyl))][Aib]EGTFTSDYSIAMDEIHQKDFVNWLLAQC (bridge 16-20) [triple agonist of SEQ ID NO: 83] | 1.3%
{Acetyl(2-(4-imidazolyl))}-[Aib]EGTFTSDYSIAMDEIHQKDFVDWLLAEC (bridge 15-19) [triple agonist of SEQ ID NO: 84] | < 0.1%
H[Aib]QGTFTSDVSKYLDGQAAQEFVAWLLAGC [triple agonist of SEQ ID NO: 9] | 0.13%
[Acetyl(2-(4-imidazolyl))][Aib]QGTFTSDYSIAMDEIHQKDFVNWLLAQC (bridge 16-20) [triple agonist of SEQ ID NO: 85] | < 0.1%
{Acetyl(2-(4-imidazolyl))}-[Aib]QGTFTSDYSKYLDEKRQKEFVNWLLAQC (bridge 15-19) [triple agonist of SEQ ID NO: 86] | 0.4%
{Acetyl(2-(4-imidazolyl))}-[Aib]QGTFTSDYSIAMDEIHQKDFVNWLLNTC (bridge 15-19) [triple agonist of SEQ ID NO: 87] | < 0.1%
{Acetyl(2-(4-imidazolyl))}-[Aib]QGTFTSDYSKYLDEKRQKEFVQWLLNTKC (bridge 15-19) [triple agonist of SEQ ID NO: 88] | 0.3%
{Acetyl(2-(4-imidazolyl))}-[Aib]QGTFTSDYSKYLDEKRQKEFVQWLLDTKC (bridge 15-19) [triple agonist of SEQ ID NO: 89] | 0.7%
{Acetyl(2-(4-imidazolyl))}-[Aib]EGTFTSDYSIAMDEIHQKDFVNWLLAQKC (bridge 15-19) [triple agonist of SEQ ID NO: 90] | < 0.1%
{Acetyl(2-(4-imidazolyl))}-[Aib]EGTFTSDYSIAMDEIHQKDFVDWLLAEKC (bridge 15-19) [triple agonist of SEQ ID NO: 91] | 16.8%

The binders below were run against T1, human GIP receptor (assay: cell-based or functional assay).

Binder | In vitro activity (%) vs. GIP, cAMP EC50
H[Aib]QGTFTSDYSKYLDEKRQKEFVQWLLDTKC (bridge 16-20) [triple agonist of SEQ ID NO: 78] | 0.12%
H[Aib]EGTFTSDYSIAMDEIHQKDFVNWLLAQKC (bridge 16-20) [triple agonist of SEQ ID NO: 79] | 1.4%
H[Aib]EGTFTSDYSIAMDEIHQKDFVDWLLAEKC (bridge 16-20) [triple agonist of SEQ ID NO: 80] | 0.1%
{Acetyl(2-(4-imidazolyl))}-[Aib]QGTFTSDYSKYLDEKRQKEFVQWLLNTC (bridge 15-19) [triple agonist of SEQ ID NO: 81] | < 0.1%
{Acetyl(2-(4-imidazolyl))}-[Aib]QGTFTSDYSKYLDEKRQKEFVQWLLDTC (bridge 15-19) [triple agonist of SEQ ID NO: 82] | < 0.1%
[Acetyl(2-(4-imidazolyl))][Aib]EGTFTSDYSIAMDEIHQKDFVNWLLAQC (bridge 16-20) [triple agonist of SEQ ID NO: 83] | 0.4%
{Acetyl(2-(4-imidazolyl))}-[Aib]EGTFTSDYSIAMDEIHQKDFVDWLLAEC (bridge 15-19) [triple agonist of SEQ ID NO: 84] | < 0.1%
H[Aib]QGTFTSDVSKYLDGQAAQEFVAWLLAGC [triple agonist of SEQ ID NO: 9] | < 0.1%
[Acetyl(2-(4-imidazolyl))][Aib]QGTFTSDYSIAMDEIHQKDFVNWLLAQC (bridge 16-20) [triple agonist of SEQ ID NO: 85] | 0.3%
{Acetyl(2-(4-imidazolyl))}-[Aib]QGTFTSDYSKYLDEKRQKEFVNWLLAQC (bridge 15-19) [triple agonist of SEQ ID NO: 86] | 0.2%
{Acetyl(2-(4-imidazolyl))}-[Aib]QGTFTSDYSIAMDEIHQKDFVNWLLNTC (bridge 15-19) [triple agonist of SEQ ID NO: 87] | < 0.1%
{Acetyl(2-(4-imidazolyl))}-[Aib]QGTFTSDYSKYLDEKRQKEFVQWLLNTKC (bridge 15-19) [triple agonist of SEQ ID NO: 88] | < 0.1%
{Acetyl(2-(4-imidazolyl))}-[Aib]QGTFTSDYSKYLDEKRQKEFVQWLLDTKC (bridge 15-19) [triple agonist of SEQ ID NO: 89] | < 0.1%
{Acetyl(2-(4-imidazolyl))}-[Aib]EGTFTSDYSIAMDEIHQKDFVNWLLAQKC (bridge 15-19) [triple agonist of SEQ ID NO: 90] | < 0.1%
{Acetyl(2-(4-imidazolyl))}-[Aib]EGTFTSDYSIAMDEIHQKDFVDWLLAEKC (bridge 15-19) [triple agonist of SEQ ID NO: 91] | 0.3%

What follows are binders tested against human GLP-1 receptor (human, UniProt P43220 24-463) (assay: cell-based or functional assay).

Binder | In vitro activity (%) vs. GLP-1, cAMP EC50
H[Aib]QGTFTSDYSKYLDEKRQKEFVQWLLDTKC (bridge 16-20) [triple agonist of SEQ ID NO: 78] | 51%
H[Aib]EGTFTSDYSIAMDEIHQKDFVNWLLAQKC (bridge 16-20) [triple agonist of SEQ ID NO: 79] | 41.5%
H[Aib]EGTFTSDYSIAMDEIHQKDFVDWLLAEKC (bridge 16-20) [triple agonist of SEQ ID NO: 80] | 8.1%
{Acetyl(2-(4-imidazolyl))}-[Aib]QGTFTSDYSKYLDEKRQKEFVQWLLNTC (bridge 15-19) [triple agonist of SEQ ID NO: 81] | 7.8%
{Acetyl(2-(4-imidazolyl))}-[Aib]QGTFTSDYSKYLDEKRQKEFVQWLLDTC (bridge 15-19) [triple agonist of SEQ ID NO: 82] | 9.5%
[Acetyl(2-(4-imidazolyl))][Aib]EGTFTSDYSIAMDEIHQKDFVNWLLAQC (bridge 16-20) [triple agonist of SEQ ID NO: 83] | 47.3%
{Acetyl(2-(4-imidazolyl))}-[Aib]EGTFTSDYSIAMDEIHQKDFVDWLLAEC (bridge 15-19) [triple agonist of SEQ ID NO: 84] | 4.2%
H[Aib]QGTFTSDVSKYLDGQAAQEFVAWLLAGC [triple agonist of SEQ ID NO: 9] | 32.1%
[Acetyl(2-(4-imidazolyl))][Aib]QGTFTSDYSIAMDEIHQKDFVNWLLAQC (bridge 16-20) [triple agonist of SEQ ID NO: 85] | 4.3%
{Acetyl(2-(4-imidazolyl))}-[Aib]QGTFTSDYSKYLDEKRQKEFVNWLLAQC (bridge 15-19) [triple agonist of SEQ ID NO: 86] | 28.4%
{Acetyl(2-(4-imidazolyl))}-[Aib]QGTFTSDYSIAMDEIHQKDFVNWLLNTC (bridge 15-19) [triple agonist of SEQ ID NO: 87] | 0.9%
{Acetyl(2-(4-imidazolyl))}-[Aib]QGTFTSDYSKYLDEKRQKEFVQWLLNTKC (bridge 15-19) [triple agonist of SEQ ID NO: 88] | 9.6%
{Acetyl(2-(4-imidazolyl))}-[Aib]QGTFTSDYSKYLDEKRQKEFVQWLLDTKC (bridge 15-19) [triple agonist of SEQ ID NO: 89] | 7.1%
{Acetyl(2-(4-imidazolyl))}-[Aib]EGTFTSDYSIAMDEIHQKDFVNWLLAQKC (bridge 15-19) [triple agonist of SEQ ID NO: 90] | 7.4%
{Acetyl(2-(4-imidazolyl))}-[Aib]EGTFTSDYSIAMDEIHQKDFVDWLLAEKC (bridge 15-19) [triple agonist of SEQ ID NO: 91] | 31.9%
